Data from paper PMC3462190, “A Peptidic Unconjugated GRP78/BiP Ligand Modulates the Unfolded Protein Response and Induces Prostate Cancer Cell Death” (PLoS ONE, 2012).

Key:
GRP78/BiP = experiment: Co-immunoprecipitation with endogenous GRP78/BiP; format: binding
Procedure: 22Rv.1 cells were used for interaction studies of endogenous Bag-1 and GRP78/BiP, while for the in vivo interaction of the Bag-1 peptide and GRP78/BiP, HEK-293 cells were transfected with a plasmid encoding HA-tagged Bag-1 peptide. Twenty-four hours prior to the experiment, the cells in both cases were washed with phosphate buffered saline (PBS) and treated with 20 mM Dithiobis(succinimidyl propionate) (DSP) in PBS for 30 min at room temperature. The reaction was stopped with 20 mM Tris and the cells were lysed in 50 mM Tris-HCl pH 7.4, 120 mM NaCl, 1 mM EDTA, 0.4% NP40 and 1% protease inhibitor cocktail. Immunoprecipitation of GRP78/BiP was carried out overnight at 4°C with anti-GRP78 antibody coupled to sepharose A beads (Abcam, ab21685). Binding of endogenous Bag-1 or of HA-peptide was determined by Western blotting using a Bag-1 or an HA specific antibody.
Figure 1 Bag-1 proteins interact with the molecular chaperone GRP78/BiP. A. The Bag-1 family of proteins binds GRP78/BiP. GST pull-down assay was performed incubating 5 µg each of GST-fused Bag-1 proteins with 400 µg of 22Rv.1 cell lysate. […]
Figure 2 Identification of Bag-1 peptide interfering with the action of GRP78/BiP. […] Western blot analysis with an HA antibody to detected the Bag-1 mutants is shown. […] Thereafter luciferase activity was measured. […]

[1] = test system: ATPase domain of GRP78/BiP; experiment: GST pull-down with ATPase domain of GRP78/BiP; format: binding; conditions: 10 µg GST-fused ATPase domain, lysate of HEK-293 cells; for the 68 amino acid peptide results not shown

B1: Bag-1: cochaperone Bag-1, HA-tagged (pcDNA3.1-HA-Bag-1), or endogenous (protein)
chain: TPLSALGIQDGCRVMLIGKKNSPQEEVELKKLKHLEKSVEKIADQLEELNKELTGIQQGFLPKDLQAE
modifications: left off: HA, end not stated, kept
notes: cochaperone Bag-1, HA-tagged (pcDNA3.1-HA-Bag-1), or endogenous
- in vivo interaction with GRP78/BiP (GRP78/BiP; 22Rv.1 cells, endogenous Bag-1): bind to GRP78/BiP in 22Rv.1 cells
- interaction with ATPase domain of GRP78/BiP [1]: interacted not only with the full length GRP78/BiP but also with its ATPase and SBD

B2: Bag-1 peptide: internal sequence of 68 amino acids of Bag-1 (Bag1-L 202–269), HA-tagged, expressed from pcDNA3 (peptide)
chain: TPLSALGIQDGCRVMLIGKKNSPQEEVELKKLKHLEKSVEKIADQLEELNKELTGIQQGFLPKDLQAE
modifications: also: HA tag, end not given here
- in vivo interaction with endogenous GRP78/BiP (GRP78/BiP; HEK-293 cells expressing HA-tagged Bag-1 peptide, DSP cross-linked): interacted with endogenous GRP78/BiP protein
- interaction with ATPase domain of GRP78/BiP [1]: interacted with both the SBD and ATPase binding domains of GRP78
